Molecular target: STAT-1alpha wild type (Tyr-phosphorylated) (Homo sapiens, UniProt P42224 P42224:2-750)
Assay: EMSA
Settings: tags: in vitro Tyr-phosphorylated with EGF-receptor kinase; chain copies: 4 on tandem site (two dimers), stated; 2 on single site; label: radiolabel
Method: Both protein preparations (Tyr-phosphorylated wild type STAT-1α and W37A mutant) were titrated in gel shift experiments with an oligonucleotide containing a single M67 site (5'-GCCGAT TTCCCGTAAATCAT-3', SEQ ID NO:5) [Wagner et al., *EMBO J.* 9:4477 (1990)] to assure similar loading of active protein. A 12.5 μl reaction volume contained DNA binding buffer (20 mM Hepes/HCl, 4% Ficoll, 40 mM KCl, 10 mM MgCl_2, 10 mM CaCl_2, 1 mM DTT) radiolabelled DNA at a final concentration of 1×10^-10 M unless stated otherwise, 50 ng dIdC, 0.2 mg/ml BSA (Boebringer Mannheim), and the indicated amount of purified phosphorylated STAT protein. The reaction volume was mixed and then incubated at room temperature. The time necessary to reach equilibrium was assessed by EMSA [(Stone et al., in Jost, J.P. & Saluz, H.P. (eds) *A Laboratory Guide to In Vitro Studies of Protein-DNA Interactions* BioMethods, vol.5:163–195 (1991)]. For all DNA fragments tested, equilibrium turned out to be fully established at the earliest timepoint that can be determined by this technique (30 sec). Therefore incubation periods of 5–15 minutes were chosen. Reaction products were loaded onto a 4% polyacrylamide gel (1.5 mm thick) containing 0.25×Tris-borate-EDTA which had been pre-run at 20V/cm for 2 hours at 4° C. Electrophoresis was continued for 60 minutes at 4° C. […]

Sequence of STAT-1alpha wild type (Tyr-phosphorylated) (P42224 2-750, one chain of several): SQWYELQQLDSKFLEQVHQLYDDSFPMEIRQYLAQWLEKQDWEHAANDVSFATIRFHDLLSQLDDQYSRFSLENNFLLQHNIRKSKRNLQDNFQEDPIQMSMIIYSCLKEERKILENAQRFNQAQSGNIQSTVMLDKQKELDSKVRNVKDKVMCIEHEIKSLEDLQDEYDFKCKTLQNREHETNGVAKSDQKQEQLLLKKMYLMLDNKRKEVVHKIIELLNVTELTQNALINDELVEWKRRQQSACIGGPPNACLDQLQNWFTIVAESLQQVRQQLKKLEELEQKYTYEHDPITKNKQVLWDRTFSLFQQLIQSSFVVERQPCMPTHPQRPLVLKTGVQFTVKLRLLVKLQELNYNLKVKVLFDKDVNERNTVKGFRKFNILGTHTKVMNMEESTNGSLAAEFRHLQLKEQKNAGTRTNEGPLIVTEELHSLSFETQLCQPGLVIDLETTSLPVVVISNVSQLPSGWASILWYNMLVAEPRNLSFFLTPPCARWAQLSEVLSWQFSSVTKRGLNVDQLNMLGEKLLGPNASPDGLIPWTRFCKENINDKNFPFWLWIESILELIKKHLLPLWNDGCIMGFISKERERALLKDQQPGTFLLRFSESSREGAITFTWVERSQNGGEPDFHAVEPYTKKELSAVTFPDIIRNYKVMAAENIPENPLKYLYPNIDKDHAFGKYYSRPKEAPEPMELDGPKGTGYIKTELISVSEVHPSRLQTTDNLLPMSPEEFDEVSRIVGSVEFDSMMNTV

B1: tandem c-fos STAT recognition element, 10 bp spacing (dsDNA)
DNA 1: GCCAGTCAGTTCCCGTCAATGCATCAGGTTCCCGTCAATGCAT
DNA 2: ATGCATTGACGGGAACCTGATGCATTGACGGGAACTGACTGGC
binding result: binds
